Among the data in PMC1933414, “Role of RGM coreceptors in bone morphogenetic protein signaling” (Journal of Molecular Signaling, 2007) are Kd, koff and kon values, retold here.

Holding throughout (test): SPR; BIAcore 3000; BMP2 (350 RU) or BMP12 (1000 RU) amine-coupled on CM5 chips; soluble RGM injected at 0.1-100 nM, 30 uL/min, 500 s, 25°C; HBS-EP pH 7.4 (0.15 M NaCl); global analysis with BIAevaluation 3.2; double referencing
(Surface plasmon resonance follows binding to a sensor surface in real time, without labels.)

Assay [1] concerns the target Human BMP12 (bone morphogenetic protein 12) (human) (UniProt Q7Z4P5).
Assay [2] addresses Human BMP2 (bone morphogenetic protein 2) (human) (UniProt P12643).
Assay [3] has as its target T1, Human BMP2 (bone morphogenetic protein 2) (human, UniProt P12643 283-396).
T1 construct: bone morphogenetic protein 2, human; purified recombinant protein; also called recombinant human BMP2; source: produced and purified as previously described [37]
The note with it: both partners purified.

The target in assay [4] is T2, Human BMP12 (bone morphogenetic protein 12) (human, UniProt Q7Z4P5 322-450).
T2 construct: bone morphogenetic protein 12 (GDF7), human; the dimer peak from size exclusion was used; also called recombinant human BMP12; source: E. coli, purified (SP-Sepharose cation exchange, size exclusion; dimer peak)
T2 sequence (looked up): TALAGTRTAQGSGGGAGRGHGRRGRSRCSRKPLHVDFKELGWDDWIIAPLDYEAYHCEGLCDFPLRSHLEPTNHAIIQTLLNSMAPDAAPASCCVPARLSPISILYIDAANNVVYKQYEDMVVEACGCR
The following applies: both partners purified.

Chain of Human BMP2 (bone morphogenetic protein 2) (human) (P12643 283-396): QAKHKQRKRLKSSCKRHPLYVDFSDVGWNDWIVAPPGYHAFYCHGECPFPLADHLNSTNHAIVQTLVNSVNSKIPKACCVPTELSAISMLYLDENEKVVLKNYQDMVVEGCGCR
T1 sequence (P12643 283-396): as above

As a reminder, the Kd is a measure of binding affinity in units of concentration. As usually defined, the koff is a measure of how fast the partners let go of each other. Low values mean slow dissociation, high ones fast dissociation. One may read the kon as the second-order rate constant of association. In assay [1], “RGMb-Fc (ectodomain of RGMb fused to the Fc portion of human IgG) (from UniProt Q6NW40 46-413) (Fc fusion)” came in with a Kd of 2.06 nM, a koff of 0.000118 s⁻¹ and a kon of 56900 M⁻¹ s⁻¹. In assay [2], this molecule registered a Kd of 5.43 nM, a koff of 0.000256 s⁻¹ and a kon of 47200 M⁻¹ s⁻¹.

With “RGMc-Fc (ectodomain of RGMc fused to the Fc portion of human IgG) (from UniProt Q6ZVN8 36-400) (Fc fusion)”, in assay [1], the Kd was 1.22 nM, the koff worked out at 9.22e-05 s⁻¹ and the kon worked out at 75600 M⁻¹ s⁻¹. Moreover, in assay [2], the Kd is 4.22 nM, the koff was determined as 0.000363 s⁻¹ and the kon was 86100 M⁻¹ s⁻¹.

B1: RGMa-Fc (ectodomain of RGMa fused to the Fc portion of human IgG) (Fc fusion)
chain: CKILKCNSEFWSATSGSHAPASDDTPEFCAALRSYALCTRRTARTCRGDLAYHSAVHGIEDLMSQHNCSKDGPTSQPRLRTLPPAGDSQERSDSPEICHYEKSFHKHSATPNYTHCGLFGDPHLRTFTDRFQTCKVQGAWPLIDNNYLNVQVTNTPVLPGSAATATSKLTIIFKNFQECVDQKVYQAEMDELPAAFVDGSKNGGDKHGANSLKITEKVSGQHVEIQAKYIGTTIVVRQVGRYLTFAVRMPEEVVNAVEDWDSQGLYLCLRGCPLNQQIDFQAFHTNAEGTGARRLAAASPAPTAPETFPYETAVAKCKEKLPVEDLYYQACVFDLLTTGDVNFTLAAYYALEDVKMLHSNKDKLHLYERTRDLPGRA
Consider B1, for which, in assay [3], binding was put at a Kd of 2.46 nM, the koff was 0.000364 s⁻¹ and the kon amounted to 148000 M⁻¹ s⁻¹. In assay [4], this molecule came in with a Kd of 1.41 nM, a koff of 0.000179 s⁻¹ and a kon of 127000 M⁻¹ s⁻¹.
